Measured values published in the supplement of paper PMC10567573.

B1: TRIM39 (parent)
chain: YPCVLATEGFTSGRHYWEVEVGDK
B2: TRIM15 (parent)
chain: LLARLRELEQQIWKERDEYITKVS

Variants of: B1
Test: protein stability index of a GFP-peptide fusion (GPS, HEK-293T) (PSI 1-6); higher = more stable
Settings: c terminus: a fixed tail appended
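Note: lentivirally expressed fusions sorted by FACS into six bins by GFP to DsRed ratio, PSI derived from sequencing read proportions per bin multiplied by bin number.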

Protein stability index: each site, then its substitutions
V21: R 2.05 | Q 1.87 | P 1.43 | S 1.88 | N 2.03 | T 1.6 | Y 2.14 | M 1.9 | W 1.92
K24: E 2.66 | V 1.96 | R 1.75 | H 1.57 | D 1.07 | I 2.65 | F 2.23 | S 1.87 | C 2.21 | L 2.05 | W 1.96 | A 1.28 | Q 1.7 | G 1.92 | M 1.95 | N 2.1 | Y 2.5 | T 2.36 | P 2.16
G22: M 1.58 | C 1.66 | A 2.05 | N 1.91 | Y 1.98 | D 1.92 | S 2.19 | E 1.88 | I 1.67 | P 1.85 | Q 2.38 | V 1.82 | L 1.81 | W 2.37 | F 1.53 | K 2.5 | T 1.76 | H 1.95 | R 1.75
D23: H 2.98 | M 1.57 | E 1.85 | L 2.51 | N 3 | C 1.71 | G 1.82 | K 1.02 | F 1.58 | S 1.76 | I 1.76 | T 2.32 | Y 1.91 | V 1.65 | A 1.79 | P 1.43 | Q 2.44 | R 1.45

Variants of: B2
Test: as above
Settings: c terminus: a fixed tail appended

Protein stability index, by site and new letter:
R6: P 2.44 | D 1.79 | C 1.8 | K 2.13 | V 3.95 | H 1.65 | E 1.82 | S 2.56 | Q 1.44 | T 1.76
A3: D 2.18 | E 3.27 | M 2.34 | P 1.99 | T 2.2 | G 1.44 | H 1.46 | V 2.49 | C 2.64 | S 1.69 | Q 1.9 | F 2.9 | L 2
R4: M 2.36 | F 1.73 | W 2.67 | G 2.56 | N 1.58 | S 1.78 | Q 1.74 | Y 1.92 | P 1.6
L1: A 1.79 | E 2.2 | Y 2.35 | Q 2.83 | T 1.63 | D 2.31 | S 2.12 | K 2.05 | H 2.19 | N 3.22 | M 1.03 | R 1.87 | F 1.55 | C 1.84 | G 1.55 | P 2.37
L2: V 1.74 | H 2.13 | S 2.34 | Y 4.12 | G 1.9 | Q 1.22 | T 2.56 | W 2.23 | P 3.13 | I 1.65 | E 1.38 | N 2.18 | M 1.49 | K 1.25 | D 2.55 | F 1.67 | C 1.6 | A 2.12
L5: F 2.17 | G 2.6 | W 1.34 | V 2.95 | P 2.65 | D 2.44 | R 2.28 | Y 1.77 | S 3.44 | M 1.83 | T 2.44 | N 2.43 | I 2.98 | A 1.91 | Q 2.64 | E 2.96 | H 2.72
E7: D 1.6 | V 3.16 | I 1.03 | P 2.57 | Q 1.61 | L 2.97 | T 3.56 | R 1.07 | N 1.84 | Y 3.38 | C 2.53
L8: I 2.51 | H 2.12 | C 1.49 | K 3.04 | A 1.14 | D 2.48 | G 2.9 | E 2.24
